This passage reports kcat and kcat/Km results from ChEMBL document CHEMBL1671790, “A new β-carbonic anhydrase from Brucella suis, its cloning, characterization, and inhibition with sulfonamides and sulfamates, leading to impaired pathogen growth” (Bioorg Med Chem, 2011).

Substrate in data set [1]: O=C=O
The data set is described as follows: Activity at human carbonic anhydrase VA by spectrophotometry at pH 7.5.

Substrate in data set [2]: O=C=O
The data set is described as follows: Ratio of kcat to Km for human carbonic anhydrase VA.

Substrate in data set [3]: O=C=O
Description: Ratio of kcat to Km for human carbonic anhydrase XII.

Substrate in data set [4]: O=C=O
Description: Activity at human carbonic anhydrase XII by spectrophotometry at pH 7.5.

B1: Carbonic anhydrase 5A, mitochondrial (Homo sapiens), P35218 (protein)
chain: MLGRNTWKTSAFSFLVEQMWAPLWSRSMRPGRWCSQRSCAWQTSNNTLHPLWTVPVSVPGGTRQSPINIQWRDSVYDPQLKPLRVSYEAASCLYIWNTGYLFQVEFDDATEASGISGGPLENHYRLKQFHFHWGAVNEGGSEHTVDGHAYPAELHLVHWNSVKYQNYKEAVVGENGLAVIGVFLKLGAHHQTLQRLVDILPEIKHKDARAAMRPFDPSTLLPTCWDYWTYAGSLTTPPLTESVTWIIQKEPVEVAPSQLSAFRTLLFSALGEEEKMMVNNYRPLQPLMNRKVWASFQATNEGTRS
For B1, in data set [1], the kcat amounted to 2.9 ×10⁵ /s. Besides, the kcat/Km in data set [2] is 2.9 ×10⁷ /M/s.

B2: Carbonic anhydrase 12 (Homo sapiens), O43570 (protein)
chain: MPRRSLHAAAVLLLVILKEQPSSPAPVNGSKWTYFGPDGENSWSKKYPSCGGLLQSPIDLHSDILQYDASLTPLEFQGYNLSANKQFLLTNNGHSVKLNLPSDMHIQGLQSRYSATQLHLHWGNPNDPHGSEHTVSGQHFAAELHIVHYNSDLYPDASTASNKSEGLAVLAVLIEMGSFNPSYDKIFSHLQHVKYKGQEAFVPGFNIEELLPERTAEYYRYRGSLTTPPCNPTVLWTVFRNPVQISQEQLLALETALYCTHMDDPSPREMINNFRQVQKFDERLVYTSFSQVQVCTAAGLSLGIILSLALAGILGICIVVVVSIWLFRRKSIKKGDNKGVIYKPATKMETEAHA
Take B2: in data set [3], the kcat/Km amounted to 3.5 ×10⁷ /M/s. Moreover, the kcat in data set [4] was determined as 4.2 ×10⁵ /s.
